In patent US20030092616A1, “STAT6 activation gene” (priority 2001, published 2003):

B1: 417 (nucleic acid, listed as Homo sapiens)
chain: ATTCCTCCCAGGGACCCCAGACCTCTGTCTCTCTCGGCAGGCCTTGGCTCCTTGAACTTTTGGCCGCCATGTACTTCCCGAAGGTCCTCTCTGATGACATGAAGAAGCTGAAGGCCCGAATGCACCAGGCCATAGAAAGATTTTATGATAAAATGCAAAATGCAGAATCAGGACGTGGACAGGTGATGTCGAGCCTGGCAGAGCTGGAGGACGACTTCAAAGAGGGCTACCTGGAGACAGTGGCGGCTTATTATGAGGAGCAGCACCCAGAGCTCACTCCTCTACTTGAAAAAGAAAGAGATGGATTACGGTGCCGAGGCAACAGATCCCCTGTCCCGGATGTTGAGGATCCCGCAACCGAGGAGCCTGGGGAGAGCTTTTGTGACAAGGTCATGAGATGGTTCCAGGCCATGCTGCAGCGGCTGCAGACCTGGTGGCACGGGGTTCTGGCCTGGGTGAAGGAGAAGGTGGTGGCCCTGGTCCATGCAGTGCAGGCCCTCTGGAAACAGTTCCAGAGTTTCTGCTGCTCTCTGTCAGAGCTCTTCATGTCCTCTTTCCAGTCCTACGGAGCCCCACGGGGGGACAAGGAGGAGCTGACACCCCAGAAGTGCTCTGAACCCCAATCCTCAAAATGAAGATACTGACACCACCTTTGCCCTCCCCGTCACCGCGCACCCACCCTGACCCCTCCCTCAGCTGTCCTGTGCCCCGCCCTCTCCCGCACACTCAGTCCCCCTGCCTGGCGTTCCTGCCGCAGCTCTGACCTGGTGCTGTCGCCCTGGCATCTTAATAAAACCTGCTTATACTTCCCTGGC
modifications: CDS (69)..(632)
B2: 397 (nucleic acid, listed as Homo sapiens)
chain: ACAGATGAAACTTTTTAGGTCTCAAAGAAATCTTTACATTTCTGGATTTTCCCTATTTTTTTGGCTAGTTTTGAGACGTCTGGTTACGCTTATTACTCAACTGGCAAAAGAACTGTCAAACAAAGGTGTACTTAAAACTCAAGCAGAAAATACTAACAAGGCTGCCAAAAAATTTATGGAAGAAAACGAAAAACTAAAAAGGATTTTGAAAAGCCATGGTAAAGATGAAGAATGTGTTTTGGAAGCAGAAAATAAAAAACTAGTAGAAGACCAGGAGAAACTGAAAACTGAATTAAGGAAGACTTCAGATGCCCTTTCTAAGGCACAAAATGATGTGATGGAAATGAAGATGCAGTCAGAGAGACTTTCGAAAGAATATGATCAACTCCTGAAAGAACACTCTGAACTTCAGGATCGTTTAGAAAGAGGCAACAAGAAAAGACTGTGAACTTTATAAAAGACACTTGCAATATACTGTGTCAAAATGATAATTTTGTTATGTTAGCCTCTAGAAAATTTAAGTTCAGAAAAATGCACTATGACCGGTTCGTAATTTTTTTAATGCCACACATAGGTTGTATTGTAATGGCATTATCAAAATATTTGATGATGTTTCAGATATATTGCAAAGTCTGTATTCCAGCTCTTAAGAAAAATATAAGCATGTTAAATACCATATTTACATATTGATAATGTCATTGGTATATGGTGGCTGTTTACCAATAAAAGGAAAAAATTCATT
modifications: CDS (5)..(445)
B3: 159 (nucleic acid, listed as Homo sapiens)
chain: CCGGCGGGCTGGTGAGGAATGGAGCCGGTAGGCTGCTGCGGCGAGTGCCGCGGCTCCTCCGTAGACCCGCGGAGCACCTTCGTGTTGAGTAACCTGGCGGAGGTGGTGGAGCGTGTGCTCACCTTCCTGCCCGCCAAGGCGTTGCTGCGGGTGGCCTGCGTGTGCCGCTTATGGAGGGAGTGTGTGCGCAGAGTATTGCGGACCCATCGGAGCGTAACCTGGATCTCCGCAGGCCTGGCGGAGGCCGGCCACCTGGAGGGGCATTGCTTGGTTCGCGTGGTAGCAGAGGAGCTTGAGAATGTTCGCATCTTACCACATACAGTTCTTTACATGGCTGATTCAGAAACTTTCATTAGTCTGGAAGAGTGTCGTGGCCATAAGAGAGCAAGGAAAAGAACTAGTATGGAAACAGCACTTGCCCTTGAGAAGCTATTCCCCAAACAATGCCAAGTCCTTGGGATTGTGACCCCAGGAATTGTAGTGACTCCAATGGGATCAGGTAGCAATCGACCTCAGGAAATAGAAATTGGAGAATCTGGTTTTGCTTTATTATTCCCTCAAATTGAAGGAATAAAAATACAACCCTTTCATTTTATTAAGGATCCAAAGAATTTAACATTAGAAAGACATCAACTCACTGAAGTAGGTCTTTTAGATAACCCTGAACTTCGTGTGGTCCTTGTCTTTGGTTATAATTGCTGTAAGGTGGGAGCCAGTAATTATCTGCAGCAAGTAGTCAGCACTTTCAGTGATATGAATATCATCTTGGCTGGAGGCCAGGTGGACAACCTGTCATCACTGACTTCTGAAAAGAACCCTCTGGATATTGATGCCTCGGGTGTGGTTGGACTGTCATTTAGTGGACACCGAATCCAGAGTGCCACTGTGCTCCTCAACGAGGACGTCAGTGATGAGAAGACTGCTGAGGCTGCGATGCAGCGCCTCAAAGCGGCCAACATTCCAGAGCATAACACCATTGGCTTCATGTTTGCATGCGTTGGCAGGGGCTTTCAGTATTACAGAGCCAAGGGGAATGTTGAGGCTGATGCATTTAGAAAGTTTTTTCCTAGTGTTCCCTTATTCGGCTTCTTTGGAAATGGAGAAATTGGATGTGATCGGATAGTCACTGGGAACTTTATATTGAGGAAATGTAATGAGGTAAAAGATGATGATCTGTTTCATAGCTATACAACAATAATGGCACTCATACATCTGGGGTCATCTAAATAATAATTAAAGTGGCTTTCATAATATGT
modifications: CDS (19)..(1227)
B4: 413 (nucleic acid, listed as Homo sapiens)
chain: GAGGAGGCCGCGCCAGTGACAGCGATGGCGGCGGAGTCGGCGCTCCAAGTTGTGGAGAAGCTGCAGGCGCGCCTGGCCGCGAACCCGGACCCTAAGAAGCTATTGAAATATTTGAAGAAACTCTCCACCCTGCCTATTACAGTAGACATTCTTGCGGAGACTGGGGTTGGGAAAACAGTAAATAGCTTGCGAAAACACGAGCATGTTGGAAGCTTTGCCAGGGACCTAGTGGCCCAGTGGAAGAAGCTGGTTCCTGTGGAACGAAATGCTGAGCCTGATGAACAGGACTTTGAGAAGAGCAATTCCCGAAAGCGCCCTCGGGATGCCCTGCAGAAGGAGGAGGAGATGGAGGGGGACTACCAAGAAACCTGGAAAGCCACGGGGAGCCGATCCTATAGCCCTGACCACAGGCAGAAGAAACATAGGAAACTCTCGGAGCTCGAGAGACCTCACAAAGTGTCTCACGGTCATGAGAGGAGAGATGAGAGAAAGAGGTGTCACAGAATGTCACCAACTTACTCTTCAGACCCTGAGTCTTCTGATTATGGCCATGTTCAATCCCCTCCATCTTGTACCAGTCCTCATCAGATGTACGTCGACCACTACAGATCCCTGGAGGAGGACCAGGAGCCCATTGTTTCACACCAGAAGCCTGGGAAAGGCCACAGCAATGCCTTTCAGGACAGACTCGGGGCCAGCCAAGAACGACACCTGGGTGAACCCCATGGGAAAGGGGTTGTGAGTCAAAACAAGGAGCACAAATCTTCCCACAAGGACAAACGCCCCGTGGATGCCAAGAGTGATGAGAAGGCCTCTGTGGTGAGCAGAGAGAAATCACACAAGGCCCTCTCCAAAGAGGAGCCGGCCTATGATGGCCCAAGCACCAGCAGTGCCCACTTGGCACCAGTGGTCAGCAGCACTGTTTCCTATGATCCTAGGAAACCCACTGTGAAGAAAATTGCCCCAATGATGGCCAAGACAATTAAAGCTTTCAAGAACAGATTCTCCCGACGATAAACTGAGGACTTGCCTTGGAAATGGAATCTGGGGAGGCAGGAATACAAGGACAGTGGGGGTTGGGGAATGGAATTCTACAGGAGACTGGAGTCTTGCTTTGTGGATCCTTTTGGTCTCCGAGTCCTGCAGTCTGCAGGTGCTGCCCCTGGGAACCTGCGTGCCACAGCCCCGCCTCCCTGCCTGGAGCACACTTTAGAATTCTGAAGATGTGAAGCCTCTGTCTCACTGAGGATTTTAAAGGTCAATTATACTTTTGTTGTTCATTAGCATCTTTGTAAACTATAAGACGTAGTTTTAATTAATAAATATTGCCCCCAGATTGTATTT
modifications: CDS (25)..(1014)
B5: 423 (nucleic acid, listed as Homo sapiens)
chain: AAAAAAAAAGCTGGGAGCCGCCGCCCCCGCAGCTGCTGCCGCCGCCGCCAGGGCCCGGACTCGGACGCGTGGTAGCCCCAGGATGGGTGAGTTCAACGAGAAGAAGACAACATGTGGCACCGTTTGCCTCAAGTACCTGCTGTTTACCTACAATTGCTGCTTCTGGCTGGCTGGCCTGGCTGTCATGGCAGTGGGCATCTGGACGCTGGCCCTCAAGAGTGACTACATCAGCCTGCTGGCCTCAGGCACCTACCTGGCCACAGCCTACATCCTGGTGGTGGCGGGCACTGTCGTCATGGTGACTGGGGTCTTGGGCTGCTGCGCCACCTTCAAGGAGCGTCGGAACCTGCTGCGCCTGTACTTCATCCTGCTCCTCATCATCTTTCTGCTGGAGATCATCGCTGGTATCCTCGCCTACGCCTACTACCAGCAGCTGAACACGGAGCTCAAGGAGAACCTGAAGGACACCATGACCAAGCGCTACCACCAGCCGGGCCATGAGGCTGTGACCAGCGCTGTGGCAGCAACAACTCACAGGACTGGCGAGACAGTGAGTGGATCCGCTCACAGGAGGCCGGTGGCCGTGTGGTCCCAGACAGCTGCTGCAAGACGGTGGTGGCTCTTTGTGGGCAGCGAGACCATGCCTCCAACATCTACAAGGTGGAGGGCGGCTGCATCACCAAGTTGGAGACCTTCATCCAGGAGCACCTGAGGGTCATTGGGGCTGTGGGGATCGGCATTGCCTGTGTGCAGGTCTTTGGCATGATCTTCACGTGCTGCCTGTACAGGAGTCTCAAGCTGGAGCACTACTGACCCTGCCTTGGGCCTTGCTGCTGCTGCACCCAACTACTGAGCTGAGACCACTGAGTACCAGGGGCTGGGCTCCCTGATGACACCCACCCTGTGCCATCACCATAACCTCTGGGGACCCCAACCTCAGAGGCAGCTTCAAGTGCCTTTTGCTGCGCACCAATGCCCAGCAGGGGAGGTGAGGGGGGCTGGCGGGGCGAAGTTTGGGGGGTGTTTTGTGGGGCTCCCCAGACACACTCTCTGCCTGGTGGTCAGATGCAGGTTGGAAGGGGCCTTGCTGAGTGGCGCAAGGCCGAGCGTTCCCAGCAGGGGGAGAAACCCTTCACACCCCAGGCCCTTCAGGAACTGGGGCCTTGCCTTGCAGCCACATGGCCCCATCCCAGTTGGGGAAGCCAGGTGAGCTCTGACCCTTGGGCCTGGGCCTCTGCCCCTCCCAACCCAGCCCTCGTCTCCCTCGACAGCGCCCCTGCTGTCTTCCCCACCGCAGTCACCACCACCCGAAATGCCACGTGGTCACTGTGCACTGCCCTGTCCATGTGCCTCTGCGGGGCAGGGCCTTCCTGGTTTTGTTCACTGCTGTACCCAGATGCCTACAACCATCCCTGCCACATACAGGTGCTCAATAAACACTTGTAGAGCAGATGG
modifications: CDS (83)..(709)

Test system: STAT6
Experiment: Screening of full-length cDNA clones for promotion of STAT6 activation (luciferase reporter N4×8-luc)
Assay type: cell-based
Details: NIH3T3 cells cotransfected with N4×8-luc reporter and cDNA plasmid; 48 h culture, then mouse IL-4 0.5 ng/ml for 6 h
Outline: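 NIH3T3 cells cotransfected with STAT6-responsive N4×8-luc reporter (100 ng) and full-length cDNA, cultured 48 h, then given mouse IL-4 at 0.5 ng/ml final for 6 h. Luciferase activity compared with reporter plus null-vector control.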

Molecule	Activity = (luciferase activity of the gene of each SEQ ID NO:)/(luciferase activity of pME18S-FL3)
B1	13.4
B2	32.6
B3	19.1
B4	3.4
B5	4.8
